Kd data for 1 molecule are collected here from paper PMC9943652.

What all share (experiment): EMSA
One data set deals with T1, XPG (human, UniProt P28715 2-1186).
T1 sequence: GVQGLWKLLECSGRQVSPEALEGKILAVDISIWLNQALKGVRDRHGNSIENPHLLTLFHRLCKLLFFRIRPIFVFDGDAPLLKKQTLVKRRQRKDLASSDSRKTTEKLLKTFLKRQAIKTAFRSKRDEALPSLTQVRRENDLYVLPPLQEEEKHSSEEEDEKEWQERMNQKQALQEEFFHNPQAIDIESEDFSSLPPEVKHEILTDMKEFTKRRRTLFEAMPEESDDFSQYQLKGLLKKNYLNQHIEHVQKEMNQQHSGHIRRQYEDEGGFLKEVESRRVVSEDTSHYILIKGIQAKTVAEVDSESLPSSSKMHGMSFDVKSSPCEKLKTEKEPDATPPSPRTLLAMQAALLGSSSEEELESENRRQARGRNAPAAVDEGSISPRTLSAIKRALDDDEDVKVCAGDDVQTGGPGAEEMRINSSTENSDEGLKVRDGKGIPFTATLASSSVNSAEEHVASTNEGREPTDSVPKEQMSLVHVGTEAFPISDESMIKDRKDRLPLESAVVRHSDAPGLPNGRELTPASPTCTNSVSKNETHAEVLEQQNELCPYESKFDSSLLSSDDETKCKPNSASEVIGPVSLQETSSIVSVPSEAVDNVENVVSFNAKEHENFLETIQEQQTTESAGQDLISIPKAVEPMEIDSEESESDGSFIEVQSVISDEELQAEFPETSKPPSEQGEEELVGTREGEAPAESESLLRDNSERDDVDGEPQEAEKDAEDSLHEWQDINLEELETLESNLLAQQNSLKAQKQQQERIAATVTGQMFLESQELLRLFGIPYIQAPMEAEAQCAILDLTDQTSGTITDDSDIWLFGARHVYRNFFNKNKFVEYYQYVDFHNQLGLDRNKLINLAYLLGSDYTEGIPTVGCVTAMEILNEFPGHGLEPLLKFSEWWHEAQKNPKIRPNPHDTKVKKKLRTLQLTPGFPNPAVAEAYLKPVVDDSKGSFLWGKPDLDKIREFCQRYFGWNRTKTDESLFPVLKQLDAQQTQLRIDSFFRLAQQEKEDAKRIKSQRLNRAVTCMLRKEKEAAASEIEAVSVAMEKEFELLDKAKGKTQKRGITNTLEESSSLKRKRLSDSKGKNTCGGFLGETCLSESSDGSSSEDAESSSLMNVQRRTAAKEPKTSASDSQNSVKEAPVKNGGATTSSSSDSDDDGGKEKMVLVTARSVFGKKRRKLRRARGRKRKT

In data set [1] the target is coreTFIIH (7-subunit: XPB, XPD, p62, p52, p44, p34, p8);XPG (human;human, UniProt P19447;P18074;P32780;Q92759;Q13888;Q13889;Q6ZYL4;P28715 …, |).
Data set [2] addresses coreTFIIH (7-subunit: XPB, XPD, p62, p52, p44, p34, p8) (human, UniProt P19447;P18074;P32780;Q92759;Q13888;Q13889;Q6ZYL4 …).

B1: 3'Cy5 40ss/24ds (mixed)
DNA 1: TTTTTTTTTTTTTTTTTTTTTTTTTTTTTTTTTTTTTTTTGCTGTTGCCCGTCTCACTGGTGAA
DNA 2: TTCACCAGTGAGACGGGCAACAGC
B1: the Kd was roughly 0.134 µM in the data set with XPG, roughly 0.019 µM in data set [1] and roughly 0.082 µM in data set [2].
